Laboratory results: the nanobody polyreactivity screen of Harvey et al. (2022)

Assay: yeast display, Sf9 membrane polyspecificity reagent, FACS + sequencing; frameworks hold sequencing errors
In short: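 Galactose-induced (36–48 hours) yeast carrying a synthetic nanobody display library were exposed to 10% biotinylated, detergent-solubilized Sf9 membrane reagent at 4 °C for 1 hour. FACS followed streptavidin microbead enrichment, using low and high (top ~1%) gates for expression (anti-HA) and reagent binding (streptavidin). Colony PCR, MiSeq 2 × 250 sequencing and CDR-length filtering followed. Labels for polyreactivity reflect the gate of origin.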

Sequence	polyreactivity (PSR sort gate)
QVQLVESGGGLVQAGGSLRLSCASSGLTFKQYAMVWYRQAPGKERELVAAITVSGGDTYYADSVKGRFTISRDNAKNTVYLQMNSLKPEDTAVYYCAAEHFFWGYDYWGQGTQVTVSS	high polyreactivity
QVQLVESGGGLVQAGGSLRLSCASSGLTFRYNAMGWYRQAPGKERELVAAIRTSGGSTYYADSVKGRFTISRDNAKNTVYLQMNSLKPEDTAVYYCAARSKSYYGGYARGYWGQGTQVTVSS	high polyreactivity
QVQLVESGGGLVQAGGSLRLSCASSGNTFTVNAMGWYRQAPGKERELVAAINYSGGSTYYADSVKGRFTISRDNAKNTVYLQMNSLKPEDTAVYYCAASPDELLYEMYYWGQGTQVTVSS	low polyreactivity
QVQLVESGGGLVQAGGSLRLSCASSGNTFYGYAMGWYRQAPGKERELVASITLSGDSTYYADSVKGRFTISRDNAKNTVYLQMNSLKPEDTAVYYCAGVYTYPLGYYHYTYDYWGQGTQVTVSS	low polyreactivity
QVQLVESGGGLVQAGGSLRLSCASSGRIFKYYSMGCYRQSPGKVRELVASISWSGGSTYYADSVKGRFTISRDNAKNTVYLQMNSLKPEDTAVYYCAAYVTYLRYRSNIAYYGYDYWGQGTQVTVSS	high polyreactivity
QVQLVESGGGLVQAGGSLRLSCASSGRIFRYYDMGWYRQAPGKERELVASITSGGSTNYADSVKGRFTISRDNAKNTVYLQMNSLKPEDTAVYYCAARWGYARANGYDYWGQGTQVTVSS	high polyreactivity
QVQLVESGGGLVQAGGSLRLSCASSGRTFAGNVMGWYRQAPGKERELVAAITGRGGSTYYADSVKGRFTISRDNAKNTVYLQMNSLKPEDTAVYYCNALTWPRYYYWGQGTQVTVSS	high polyreactivity
QVQLVESGGGLVQAGGSLRLSCASSGRTFALYAMGWYRKAPGKERELVAGITFRGGSTYYADSVKGRFTISRDNAKKTVYLQMISQKPEDNAVYYCAAERWRWYYSWNMDYWGQCTQVTVSS	high polyreactivity
QVQLVESGGGLVQAGGSLRLSCASSGRTFLHNAMGWYRQAPGKERELVAAISSRGGSTYYADSVKGRFTISRDNAKNTVYLQMNSLKPEDTAVYYCAADLVVYRYDYWGQGTQVTVSS	high polyreactivity
QVQLVESGGGLVQAGGSLRLSCASSGRTFPGNAMGWYRQAPGKERELVATISSGGTTNYADSVKGRFTISRDNAKNTVYLQMNSLKPDDTAFYYCATDTYHHKADYEYWGQGTQVTLSS	low polyreactivity
QVQLVESGGGLVQAGGSLRLSCASSGRTFTKYAMGWYRHPPGKESELVAAISRSGGSTYYADSVKGRFTISRDNAKNTVYLQMNSLKPEDTAVYYWAARGQYRYSFGDYSWGQGTQVTVSS	high polyreactivity
QVQLVESGGGLVQAGGSLRLSCASSGRTLGGYAMGWYRQAPGKERELVAAITRRGGSTYYADSVKGRFTISRDNAKNTVYLLMNSLKTEDTAVYYCAARWYARSLTRFNYWGEGTQVTVSS	high polyreactivity
QVQLVESGGGLVQAGGSLRLSCASSGSIFVLNAMGWYRQAPVKESELVAGITYSGGSTYYADSVKGRFTISRDNAKNTVYLQMNSLKPEDTAVYYWSAPVRRYPYPGRFYYWGQGTQVTVSS	low polyreactivity
QVQLVESGGGLVQAGGSLRLSCASSGSIFYPYAMGWYRPAPGKERELVAAISSGGTTYYADSVKGRFTISRDNAKNTVYLQMNSLKPEDTAVYYCAAGFYLRAVWMDYWGQGTQVTVSS	high polyreactivity
QVQLVESGGGLVQAGGSLRLSCASSGSIFYYTEIGWYRQAPGKERELVAAISWGDGITYYADSVKGRFTISRDYAKNTVSLLMNSLKPEDTAFYYCAVDYYYLPFDYWGQGTQGTVSS	high polyreactivity
QVQLVESGGGLVQAGGSLRLSCASSGSISYYAMGWYRQAPGKERELVAAISSGGSTYYADSVKGRFTISRDNAKNTVYLQMNSLKPEDTAVYYCAVRYIIRGYATRYYYWGQGTQVTVSS	high polyreactivity
QVQLVESGGGLVQAGGSLRLSCASSGSTFAQNTMGWYRQAPRKERELVATISDGGGSTYYADSVKGRFTISRDNAKNTVYLQMNSLKPEDTAVYYCNTDRFWPSDYWGQGTQVTVSS	low polyreactivity
QVQLVESGGGLVQAGGSLRLSCASSGSTFFLNAMGWYRQAPGKEREFVAAISYTSTSTYYADSVKGRFTISRDNAKNTVYLQMNSLKPEDTAVYYCAVDAAGWYYTVETGDYAEDYWGQGTQVTVSS	low polyreactivity
QVQLVESGGGLVQAGGSLRLSCASSGSTFPRNAMGWYRQAPGKERELVAAITRSGANTHYADSVKGRFTISRDNAKNTVYLQMNSLKPEDTAVYYCAARSFTAYLGYYWGQGTQVTVSS	high polyreactivity
QVQLVESGGGLVQAGGSLRLSCASSGSTFRYYAMGWYRPPPGKEREWVAVITSGGSTYYADSVKGRFTISRDNAKNTVSLQMNSLKPEDTAVDYCAAVYAFYVDFDYWGQGTQVTVSS	low polyreactivity
QVQLVESGGGLVQAGGSLRLSCASSGSTFSPNAMGWYRQAPGKERELVAAITYRGANTYYADSVKGRFTISRDNAKNTVYLQMNSLKPEDTAVYYCAAEYAYHHVGFGYWGQGTQVTVSS	low polyreactivity
QVQLVESGGGLVQAGGSLRLSCASSGSTIYPNAMGWYRQAPGKERELVARISRTGGSTYADSVKGRFTISRDNAKNTVYLQMNSLKPEDTAVYYCARSYASFSWLRTKEPYEYWGQGTQVTVSS	low polyreactivity

Sequence	polyreactivity (PSR sort gate)
QVQLVESGGGLVQAGGSLRLSCASSGSTIYYNAMGWYRQAPGKERELVAAISNAGSTYYADSVKGRFTISRDNAENTVYLQMNSLKPEDTAVYYCAKRFRGITYSYYYWGQGTQVTVSS	high polyreactivity
QVQLVESGGGLVQAGGSLRLSCASSGSTLRSYAMGWYRQAPGKERELVAAIDWDGGRTYYADSVKGRFTISRDNAKNTVYIQMNSLKPEDTAVYYCNTSAGWSNGKDEGDFYSGFDYWVQGTQVTVSS	low polyreactivity
QVQLVESGGGLVQAGGSLRLSCASSGYIFAGNAMGWYRQAPGKERELVAVITRGGRTYYADSVKGRFTISRDNAKNTVYLQMNSLKPEDTAVYYCAARYPYRGWGQGTQVTVSS	high polyreactivity
QVQLVESGGGLVQAGGSLRLSCASSGYTFTIYAMGWYRQAPGKERELVAAITGRGGRTNYADSVKGRFTISRDNAKNTVYLQIYRLIPVDTAVYYCNAVTKVVYHGPYGYDYWGQGTQVTVSS	high polyreactivity
QVQLVESGGGLVQAGGSLRLSCATSGGTLVANAMGWSSQPPGKESEFVAVITLTAGSTSYADSVKGRLTISRDNAKNTVYLQMNSLKPEDTAVYYCNVDVYNVYNSYPYYYWGQGTQVTVSS	low polyreactivity
QVQLVESGGGLVQAGGSLRLSCATSGSTSYPYAMGWYRQAPGKERELVAAISTSGSTTYYADSVKVRFTLSRDNAKKTVYLQMNSLKPEDTAVYYCAKGVNFSQYPFSAYGDGGRYDYWGQGTQVTVSS	low polyreactivity
QVQLVESGGGLVQAGGSLRLSCDASGFIFYEYAMGWSRQAPGKEREFVAAISRSGTRTYYADSVKGRFTISRDNAKNTVYLQMNSLKPEDTAVYYCAAAYYGYARWRGPRKMDYWGQGTQVTVSS	high polyreactivity
QVQLVESGGGLVQAGGSLRLSCDASGFTFDDYAMGWYRQAHGNEMELVAAISSSRDSTYNADSVKGRFTISRDYEKNTVYLQINSLKPQDTAVYYCAAEYDREEYSGYDYWGEGTQVTVSS	low polyreactivity
QVQLVESGGGLVQAGGSLRLSCDASGFTFHPYTMGWYRQAPGKERELVASISWGGGSTYYADSVKGRFTISRDNAKNTVYLQMKSLNPEDTAVYYCAKDITYIYYYWGQGSQVTVSS	low polyreactivity
QVQLVESGGGLVQAGGSLRLSCDASGFTFSAYAMGWYRQAPGKERELVAAISTRGGSTRYADSVKGRFTISRDNAKNTVYLQMNSLKPEDTAVYYCADDTRSFYRYDYWGQGTQVTVSS	high polyreactivity
QVQLVESGGGLVQAGGSLRLSCDASGFTFVDYTMGWYRQAPGKERELVAAISRRGGSTYYADSVKGRFTISRANSKNTVYLQLNSLQQADTAVYYCNAYRRNYYYYQRHGYWGQCTQVTVSS	high polyreactivity
QVQLVESGGGLVQAGGSLRLSCDASGFTIYHYAIGCYRQATGKERELVDANSRSGGSTYYADSVKGRFTISRDNAQNTFYLQMNSLKPEDTAVYYCAKVLRAKNSFDYWGQGTQVTVSS	high polyreactivity
QVQLVESGGGLVQAGGSLRLSCDASGNTFGSYAMGWYGQAPGKEREVVASISGGGSTNYADSVKGRFTISRDNATNTVYLQMNSLKPEDTAVYDCAPRYYYRYYWRQGTQVTVSS	low polyreactivity
QVQLVESGGGLVQAGGSLRLSCDASGRIFASNAMGWYRQAPGKERELVATIRRSGGSTYYADSVKGRFTISRDNAKNTVYLQMNSLKPEDTAVYYCNARMYGGYGWIYDYWRQGTQVTVSS	high polyreactivity
QVQLVESGGGLVQAGGSLRLSCDASGRIFRKNAMGWYRQAPGKERELVAAISGGGGSTYYADSVKGRFTISRDNAKNTVYLQMNSLKPEDTADYYCNAPILPGYWGQGTQVTVSS	high polyreactivity
QVQLVESGGGLVQAGGSLRLSCDASGRIFRYYAMGWYRQAPGKERELVAAISSDGSTDYADSVKGRFTISRDNAKNTVYLQMNSLKPEDTAVYYCAASVVSYGHDYWGQGTQVTVSS	low polyreactivity
QVQLVESGGGLVQAGGSLRLSCDASGRIFSRYAIGWYRQAPGKERELVAAITQSGTSTYYADSVKGRFTISRDNAKNTVYLQMNSLNPEDTAVYYCNAYRQYRYDYWGQGTQVTVSS	low polyreactivity
QVQLVESGGGLVQAGGSLRLSCDASGRIFSVYAMGWYRQEPGKEREFVSAISRGGSTNYADSVNGRFTISRDNAKYTVYLQKNSLKPEDTAVYYWGASSLPNYYYRHYYLYEYWGQGTQVTVSS	low polyreactivity
QVQLVESGGGLVQAGGSLRLSCDASGRIIAFYVMGWYRQAPGKERELVAAITSGGNTNYADSVKGRFTISRDNAKNTVYLQMNSLKPEDTAVYYCAVPVLTYVSDYYWGQGTQVTVSS	low polyreactivity
QVQLVESGGGLVQAGGSLRLSCDASGRTFAYYAMGWYRQAPGKERELVAAISNGGSTYYADSVKGRFTISRDNAKNTVYLQMNRLKPEDTSVYYCNAYYSDLYDYWGQGTQVTVSS	low polyreactivity
QVQLVESGGGLVQAGGSLRLSCDASGRTFGHKAMAWYRQAPGKEREFVAAITYSCVRTFYADSVKGRFTISRDNAKNTVYLQMNSLKQEDTAVYYCATDWRRDYDFWGQGTQVTVSS	low polyreactivity
